The text below walks through data of patent publication US20170174789A1 (Regeneron, published 2017).

What is called Kd is a measure of binding affinity in units of concentration. For orientation: koff means the rate constant with which the complex falls apart. A higher koff goes with a short-lived complex. Usually kon stands for a measure of how fast the partners come together. A higher kon goes with faster complex formation.

One assay deals with T1, mAng3 (mouse, UniProt Q9WVH6 22-509, limits assumed).
T1 construct: Bought protein; also called angiopoietin 3
T1 sequence (looked up): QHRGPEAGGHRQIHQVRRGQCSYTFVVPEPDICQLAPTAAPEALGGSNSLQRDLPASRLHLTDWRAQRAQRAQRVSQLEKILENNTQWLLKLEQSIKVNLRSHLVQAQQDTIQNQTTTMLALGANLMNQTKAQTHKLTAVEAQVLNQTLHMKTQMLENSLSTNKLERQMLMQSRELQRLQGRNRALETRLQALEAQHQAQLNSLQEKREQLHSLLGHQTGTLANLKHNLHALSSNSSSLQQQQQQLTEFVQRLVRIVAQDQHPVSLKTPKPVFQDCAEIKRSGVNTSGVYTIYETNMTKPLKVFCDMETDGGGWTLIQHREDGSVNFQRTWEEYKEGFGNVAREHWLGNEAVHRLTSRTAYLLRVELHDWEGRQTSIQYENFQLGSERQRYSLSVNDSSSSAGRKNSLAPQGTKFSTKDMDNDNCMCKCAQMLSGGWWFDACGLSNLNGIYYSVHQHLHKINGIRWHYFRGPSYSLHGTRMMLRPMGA
The assay can be described thus: Octet Red biosensor, hTie2.mFc captured on anti-mFc tips, 100 nM angiopoietin for 5 min; some tips first saturated with 300 nM H4H2055N or Control I. The procedure: (§1) A further set of experiments was conducted to evaluate the ability of H4H2055N to block Tie2 binding to Ang2 and other members of the angiopoietin family (Ang1, Ang3 and Ang4). In this set of experiments, an Octet Red biosensor was employed using two experimental formats. In the first format, hTie2.mFc (SEQ ID NO:4; 10 μg/ml) or a negative control was captured on anti-mFc Octet sensor tips for 5 min. The captured sensor tip surfaces were then saturated with H4H2055N or Control I antibody by dipping into wells containing 300 nM of respective monoclonal antibodies for 10 min. Finally the sensor tips were placed into wells containing 100 nM of hAng1 (R&D Systems, Inc., Minneapolis, Minn., Cat 923-AN/CF; Accession #Q5HYA0), hAng2 (R&D Systems, Inc., Minneapolis, Minn., Cat 623-AN/CF; Accession #015123), mAng3 (R&D Systems, Inc., Minneapolis, Minn., Cat 738-AN/CF; Accession #Q9WVH6) or hAng4 (R&D Systems, Inc., Minneapolis, Minn., Cat 964-AN/CF; Accession Q9Y264) for 5 min. Binding response at each step of the experiment was monitored and the binding of different angiopoietins to the monoclonal antibody saturated receptor surfaces was plotted (FIG. 2). As illustrated by FIG. 2, H4H2055N blocked the binding of all four angiopoietins to the hTie2.mFc surface.

Another assay has as its target T2, hAng2 (human, UniProt O15123 19-496, limits assumed).
T2 construct: Bought protein; also called angiopoietin 2
T2 sequence (looked up): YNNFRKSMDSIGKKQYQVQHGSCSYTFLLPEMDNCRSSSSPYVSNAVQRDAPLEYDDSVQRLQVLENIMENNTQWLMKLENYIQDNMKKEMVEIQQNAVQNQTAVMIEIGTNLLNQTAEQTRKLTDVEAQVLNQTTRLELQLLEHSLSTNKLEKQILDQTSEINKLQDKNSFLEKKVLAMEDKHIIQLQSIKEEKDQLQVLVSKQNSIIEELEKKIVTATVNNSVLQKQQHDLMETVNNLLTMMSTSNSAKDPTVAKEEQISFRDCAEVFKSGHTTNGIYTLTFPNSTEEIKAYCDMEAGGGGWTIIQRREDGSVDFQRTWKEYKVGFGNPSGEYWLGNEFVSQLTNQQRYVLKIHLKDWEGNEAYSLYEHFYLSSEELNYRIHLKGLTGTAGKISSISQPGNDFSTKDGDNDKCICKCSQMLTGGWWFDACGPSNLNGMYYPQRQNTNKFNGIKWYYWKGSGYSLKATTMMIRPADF
The description is as above. The protocol:
as §1

A further assay deals with T3, hAng4 (human, UniProt Q9Y264 25-503, limits assumed).
T3 construct: Bought protein; also called angiopoietin 4
T3 sequence (looked up): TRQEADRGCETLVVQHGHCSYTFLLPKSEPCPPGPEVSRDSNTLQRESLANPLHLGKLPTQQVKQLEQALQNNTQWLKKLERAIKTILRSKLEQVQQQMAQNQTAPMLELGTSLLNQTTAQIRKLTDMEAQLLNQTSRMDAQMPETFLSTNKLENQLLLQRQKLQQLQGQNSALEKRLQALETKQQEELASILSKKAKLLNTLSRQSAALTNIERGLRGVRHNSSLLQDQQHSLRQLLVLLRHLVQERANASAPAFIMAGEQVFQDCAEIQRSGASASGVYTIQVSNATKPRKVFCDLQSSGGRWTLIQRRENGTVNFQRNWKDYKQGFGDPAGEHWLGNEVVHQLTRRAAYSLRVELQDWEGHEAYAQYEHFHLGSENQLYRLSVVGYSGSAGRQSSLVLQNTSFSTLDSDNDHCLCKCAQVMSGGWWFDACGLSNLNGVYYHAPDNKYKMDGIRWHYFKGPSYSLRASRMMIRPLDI
The description is as above. The protocol:
as §1

Another assay addresses T4, hTie2 (Ig2-EGF) (human, UniProt Q02763 121-344).
T4 construct: Domain-deletion construct linked to Luminex beads
The assay can be described thus: Luminex bead binding. The protocol: (§2) For binding, 25 μl of anti-Tie2 antibody (25 μg/ml) was added to 75 μl of the above created Luminex bead mixture (3×10³ beads per construct) in binding buffer (PBS, 0.05% Tween 20, 1 mg/ml BSA, 0.05% sodium azide) into a 96 well filter plate (Millipore). Incubation was at room temperature (RT) for 90 min or overnight at 4° C. with shaking. The beads were washed 3× with washing buffer (PBS+0.05% Tween 20) resuspended in 100 μl binding buffer containing PE (phycoerythrine)-labeled anti human kappa or PE-labeled anti mouse Fab secondary antibody and incubated at RT for 45 min with shaking. Samples were washed 2× more and binding signal (MFI) for each bead was determined using a Luminex L200 or FLEXMAP3D instrument. Bead linked human Tie2 was used as positive control and bead linked human Tie1 was used to measure family cross-reactivity. In general MFI signals greater than 500 units represent significant binding.

For another assay, the target named is T5, hTie2 (EGF) (human, UniProt Q02763 210-344).
T5 construct: Domain-deletion construct linked to Luminex beads
T5 sequence (Q02763 other isoform, or with tags, fused parts or gaps limits assumed): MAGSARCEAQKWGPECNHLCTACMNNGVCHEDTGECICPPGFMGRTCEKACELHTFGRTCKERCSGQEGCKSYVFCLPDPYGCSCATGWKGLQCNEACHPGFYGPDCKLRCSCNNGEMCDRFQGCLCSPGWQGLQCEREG
The assay can be described thus: Luminex bead binding. The procedure:
as §2

Another assay addresses T6, hTie2 (Ig1-Ig2-EGF) (human, UniProt Q02763 24-344).
T6 construct: Domain-deletion construct; also used for H/D exchange
Kind of assay: Luminex bead binding. The protocol: as §2

The target in the next assay is T7, mTie2-hFc (mouse).
T7 construct: also called mouse Tie2
Kind of assay: SPR Biacore 25C, mAb captured. The procedure:
(§3) (Tables 3-6). Measurements were conducted on a Biacore 2000 or T200 instrument.
(§4) For antibodies with a mouse constant region (designated H1M or H2M), antibodies were immobilized onto an anti-mouse Fc sensor surface and different concentrations of human, mouse or rat Tie2 constructs (hTie2-His, mTie2-hFc and rTie2-hFc) were injected over the antibody captured surface. For antibodies in the human IgG format (designated H1H or H4H), either an anti-human Fc sensor surface (hTie2-His and hTie2-mFc) or anti-human Fab sensor surface (mTie2-hFc and rTie2-hFc) was employed depending on the Tie-2 construct applied to the antibody captured surface. Amino acid sequences of the constructs used in this Example are as follows: hTie2-His (SEQ ID NO:2); hTie2-hFc (SEQ ID NO:3); hTie2-mFc (SEQ ID NO:4); rTie2-hFc (SEQ ID NO:5); and mTie2-hFc (SEQ ID NO:6).
(§5) Kinetic rate constants—association rate (ka) and dissociation rate (kd) were determined by fitting the real time binding sensorgrams to a 1:1 binding model with mass transport limitation using Scrubber 2.0 curve fitting software. The equilibrium dissociation constant (KD) and dissociative half-life (T½) were calculated from the kinetic rate constants as: KD (M)=kd/ka; and T½ (min)=(In2/(60*kd).).
On the technique in general: Surface plasmon resonance follows binding to a sensor surface in real time, without labels.

A further assay concerns the target T8, rTie2-hFc (rat).
T8 construct: also called rat Tie2
The assay can be described thus: SPR Biacore 25C, mAb captured. The protocol: as §3, §4, §5

In assay [1] the target is hTie2 on 293-Tie2/SRE-Luc cells (human, UniProt Q02763 23-1124). The assay can be described thus: cell-based or functional assay.

T8 sequence (chain, as listed by the source limits assumed): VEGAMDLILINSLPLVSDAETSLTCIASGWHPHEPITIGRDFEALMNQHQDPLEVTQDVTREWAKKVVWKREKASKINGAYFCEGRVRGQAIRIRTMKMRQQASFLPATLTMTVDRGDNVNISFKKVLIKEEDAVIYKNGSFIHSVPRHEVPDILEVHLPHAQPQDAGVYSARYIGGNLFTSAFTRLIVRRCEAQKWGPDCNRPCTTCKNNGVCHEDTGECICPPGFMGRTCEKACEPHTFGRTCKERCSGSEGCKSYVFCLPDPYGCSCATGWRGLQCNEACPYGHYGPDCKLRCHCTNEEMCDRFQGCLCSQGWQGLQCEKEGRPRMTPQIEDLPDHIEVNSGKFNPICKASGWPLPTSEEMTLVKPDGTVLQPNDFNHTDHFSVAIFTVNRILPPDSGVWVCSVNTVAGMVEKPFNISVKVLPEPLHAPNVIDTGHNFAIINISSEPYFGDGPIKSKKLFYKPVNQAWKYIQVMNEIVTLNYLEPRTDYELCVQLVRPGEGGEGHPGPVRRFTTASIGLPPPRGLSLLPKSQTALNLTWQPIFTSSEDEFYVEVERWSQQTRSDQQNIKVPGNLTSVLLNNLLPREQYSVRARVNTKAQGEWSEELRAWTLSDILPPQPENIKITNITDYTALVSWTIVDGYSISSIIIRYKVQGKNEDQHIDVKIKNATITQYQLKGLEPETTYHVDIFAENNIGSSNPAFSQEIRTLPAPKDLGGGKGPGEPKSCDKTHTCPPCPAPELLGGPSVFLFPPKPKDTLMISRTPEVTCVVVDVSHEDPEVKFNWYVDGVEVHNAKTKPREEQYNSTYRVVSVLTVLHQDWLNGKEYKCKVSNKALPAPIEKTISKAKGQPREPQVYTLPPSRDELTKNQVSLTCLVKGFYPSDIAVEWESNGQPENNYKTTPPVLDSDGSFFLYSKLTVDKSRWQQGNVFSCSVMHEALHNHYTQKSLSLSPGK
T4 sequence (Q02763 other isoform, or with tags, fused parts or gaps limits assumed): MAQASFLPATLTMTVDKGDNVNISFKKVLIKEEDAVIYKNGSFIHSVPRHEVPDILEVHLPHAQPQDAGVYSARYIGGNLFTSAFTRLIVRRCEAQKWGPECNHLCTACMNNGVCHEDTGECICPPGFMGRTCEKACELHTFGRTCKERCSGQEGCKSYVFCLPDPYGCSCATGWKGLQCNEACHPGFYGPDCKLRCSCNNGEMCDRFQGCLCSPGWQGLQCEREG

B1: hTie2-mFc (Fc fusion)
chain: AMDLILINSLPLVSDAETSLTCIASGWRPHEPITIGRDFEALMNQHQDPLEVTQDVTREWAKKVVWKREKASKINGAYFCEGRVRGEAIRIRTMKMRQQASFLPATLTMTVDKGDNVNISFKKVLIKEEDAVIYKNGSFIHSVPRHEVPDILEVHLPHAQPQDAGVYSARYIGGNLFTSAFTRLIVRRCEAQKWGPECNHLCTACMNNGVCHEDTGECICPPGFMGRTCEKACELHTFGRTCKERCSGQEGCKSYVFCLPDPYGCSCATGWKGLQCNEACHPGFYGPDCKLRCSCNNGEMCDRFQGCLCSPGWQGLQCEREGIPRMTPKIVDLPDHIEVNSGKFNPICKASGWPLPTNEEMTLVKPDGTVLHPKDFNHTDHFSVAIFTIHRILPPDSGVWVCSVNTVAGMVEKPFNISVKVLPKPLNAPNVIDTGHNFAVINISSEPYFGDGPIKSKKLLYKPVNHYEAWQHIQVTNEIVTLNYLEPRTEYELCVQLVRRGEGGEGHPGPVRRFTTASIGLPPPRGLNLLPKSQTTLNLTWQPIFPSSEDDFYVEVERRSVQKSDQQNIKVPGNLTSVLLNNLHPREQYVVRARVNTKAQGEWSEDLTAWTLSDILPPQPENIKISNITHSSAVISWTILDGYSISSITIRYKVQGKNEDQHVDVKIKNATIIQYQLKGLEPETAYQVDIFAENNIGSSNPAFSHELVTLPESQAPADLGGGKGPGEPRGPTIKPCPPCKCPAPNLLGGPSVFIFPPKIKDVLMISLSPIVTCVVVDVSEDDPDVQISWFVNNVEVHTAQTQTHREDYNSTLRVVSALPIQHQDWMSGKEFKCKVNNKDLPAPIERTISKPKGSVRAPQVYVLPPPEEEMTKKQVTLTCMVTDFMPEDIYVEWTNNGKTELNYKNTEPVLDSDGSYFMYSKLRVEKKNWVERNSYSCSVVHEGLHNHHTTKSFSRTPGK
Turning to B1, the binding result with mAng3, with hAng2 and with hAng4 was “binds” in each case.

B2: H1H2332B (antibody, V domains shown)
VH: QVQLQESGPGLVKPSETLSLTCTVSGASISSYYWTWFRQPPGQGLEWIGYIYYSGSTNYNPSLKSRVTISVDTSMNQFSLKLTSVTAADTAVYYCARQGGYTSSLFDYWGQGTLVTVSS
VL: DIQMTQSPSSLSASVGDRVTITCRASQSISSYLNWYQQKPGKAPKLLIYVVSSLQSGVPSRFSGSGSGTDFTLTISSLQPEDFATYYCQQSYSIPWTFGQGTKVEIK
notes: Tested as H1H2332B (human IgG format, H1H prefix)
For B2, the binding result with hTie2 (Ig2-EGF) is recorded as “no binding (tested: MFI >500 = significant binding)”. For the same molecule, the binding result in the assay with hTie2 (EGF) was “no binding (tested: MFI >500 = significant binding)”. Also, the binding result in the assay with hTie2 (Ig1-Ig2-EGF) is reported as “no binding (tested: MFI >500 = significant binding)”. In the assay with mTie2-hFc, the Kd came out at 107 nM, the “T½” value is 2 min, the koff amounted to 0.00576 s⁻¹ and the on-rate (kon) came to 53900 M⁻¹ s⁻¹. Further, in the assay with rTie2-hFc, the affinity, expressed as Kd, was 55.3 nM; the “T½” value is 2 min; the koff was found to be 0.00618 s⁻¹; the kon amounted to 112000 M⁻¹ s⁻¹. In assay [1], the “EC50, Tie2 dependent luciferase activity, 293-Tie2/SRE-Luc cells with 1 nM BowAng1” value was determined as 2.5 nM and the “EC50, Tie2 dependent luciferase activity, 293-Tie2/SRE-Luc cells with 1 nM BowAng2” value amounted to 3.7 nM.
